Assay results: paper PMC12782892, “Natural variations in MdBPM2/MdRGLG3‐MdNAC83 network controlling the quantitative segregation of apple fruit storability”

Molecular target: MdNAC83 (Malus domestica, UniProt D9ZJA0 1-255)
Assay: EMSA; LightShift Chemiluminescent EMSA kit (Thermo), per Fan et al. 2018; buffer, salt, pH and temperature not stated
Conditions: protein: recombinant, tags: His (pET-32a), chain copies: 2, blunt

Sequence of MdNAC83 (D9ZJA0 entry or part of it): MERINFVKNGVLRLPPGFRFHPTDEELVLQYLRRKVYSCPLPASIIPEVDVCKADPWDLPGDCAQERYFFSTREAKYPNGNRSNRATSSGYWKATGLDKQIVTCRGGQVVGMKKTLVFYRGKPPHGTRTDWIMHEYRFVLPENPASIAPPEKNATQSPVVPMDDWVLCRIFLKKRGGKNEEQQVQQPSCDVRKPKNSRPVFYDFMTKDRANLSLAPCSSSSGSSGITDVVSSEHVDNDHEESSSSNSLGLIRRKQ

B1: MdACO1 promoter probe (MdACO1-F/R) (dsDNA)
DNA 1: TTGGTAGGGGTCCATCAGGACGTGCTTACTGTTCCCTACT
DNA 2: AGTAGGGAACAGTAAGCACGTCCTGATGGACCCCTACCAA
B1: binds ((LightShift kit; MdACO1-HotF)).

B2: MdMANA3 promoter probe (MdMAN3-F/R) (dsDNA)
DNA 1: GGTTAATTTTCTCAATTTCGTATTGATTTACTCTTGTACT
DNA 2: AGTACAAGAGTAAATCAATACGAAATTGAGAAAATTAACC
B2: binds ((LightShift kit; MdMAN3-HotF)).

B3: MdXTH28 promoter probe (MdXH28-F/R) (dsDNA)
DNA 1: CCGTCCAAACCAGTAAACACGTAATTATAATCTCATTTAT
DNA 2: ATAAATGAGATTATAATTACGTGTTTACTGGTTTGGACGG
B3: binds ((LightShift kit)).
